Results on five molecules are retold here after article PMC10653885 (mBio, 2023).

Series [1] has as its target recombinant BB0238 P65A (rP65A) (Borrelia burgdorferi B31). Description: MST; 10 nM target protein labelled with Red-tris-NTA dye; 12-point 1:1 serial dilution of the ligand from 20 µM; PBS + 0.05% Tween-20, pH 7.4; 40% MST power, 10% LED power; TJump analysis, KD fit model of 1:1 stoichiometry; three biological replicates.
Series [2] addresses recombinant BB0238 Y37A (rY37A) (Borrelia burgdorferi B31). Described as above.
Series [3] has the same target. Briefly: SEC; analytical size exclusion chromatography on a calibrated Superose 12 column; apparent molecular masses from a standard curve. On the technique in general: SEC sorts molecules by how far they enter the pores of the column.
Series [4] concerns the target recombinant BB0238 P65A (rP65A) (Borrelia burgdorferi B31). Described as above.
Series [5] has as its target recombinant BB0323 (rBB0323) (Borrelia burgdorferi) (UniProt O51302). Briefly: MST; 10 nM target protein labelled with Red-tris-NTA dye; 12-point 1:1 serial dilution of the ligand from 20 µM; PBS + 0.05% Tween-20, pH 7.4; 40% MST power, 10% LED power; TJump analysis, KD fit model of 1:1 stoichiometry; three biological replicates.
The target in series [6] is recombinant wild-type BB0238 (rBB0238^WT) (Borrelia burgdorferi B31) (UniProt O51254). The description is as above.
Series [7] concerns the target T1, recombinant BB0323 (rBB0323) (Borrelia burgdorferi, UniProt O51302 1-377, labelled with NanoTemper Red-tris-NTA dye (only in the MST with BB0108)).
T1 sequence: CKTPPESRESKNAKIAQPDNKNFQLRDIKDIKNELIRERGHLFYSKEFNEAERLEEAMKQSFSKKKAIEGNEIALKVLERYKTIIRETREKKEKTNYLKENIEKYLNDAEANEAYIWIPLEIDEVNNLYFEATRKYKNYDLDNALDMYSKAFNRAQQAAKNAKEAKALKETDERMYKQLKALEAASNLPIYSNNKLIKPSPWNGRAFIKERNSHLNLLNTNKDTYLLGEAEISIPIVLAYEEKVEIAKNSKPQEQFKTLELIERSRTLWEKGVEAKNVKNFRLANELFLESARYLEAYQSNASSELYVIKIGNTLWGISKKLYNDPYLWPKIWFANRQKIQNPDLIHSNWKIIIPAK
Described as above. Particulars: both partners purified.

Series [8] concerns the molecule itself. Briefly: SEC; analytical size exclusion chromatography on a calibrated Superose 12 column; apparent molecular masses from a standard curve.

As usually defined, the Kd is the equilibrium constant for the complex coming apart. As for “recombinant BB0323 (rBB0323) (from UniProt O51302 1-377) (natural protein)”, the figures for the Kd in series [1] and in series [2] were 702 nM and 658 nM, respectively. One may read the stoichiometry N as a count of units in the complex or per binding partner. Consider “recombinant BB0238 Y37A (rY37A) (natural protein)”, for which the stoichiometry N in series [3] came out at 2.

As to “recombinant BB0238 P65A (rP65A) (natural protein)”, the stoichiometry N in series [4] amounted to 2.

On to recombinant BB0108 (enzyme), for which the equilibrium dissociation constant (Kd) in series [5] was found to be 2330 nM; in series [6], 1890 nM.

B1: recombinant wild-type BB0238 (rBB0238^WT) (natural protein)
chain: SSYIDKQKELAIFYYEVGQRYINVGKIKKGKLFQAKALKIYPDLKKGFDIKLAVKELDARIKDDNPKVVMLEDIKLEEIPGIVHEKIEINDFTNAPKIEYIAQRERSKNQDKIIKFQFGKFARALISRNFDLFDSVIADKVNVMGQFESKNDFISTLSSASSKADADELEYLSVDDYYDLKSLKISKSNDTSFAVNVNAKKNDVTKNFPFWKERQTLIFTTEDDNNWFLSSIN
modifications: labelled with NanoTemper Red-tris-NTA dye (in MST only)
In the case of B1, the Kd in series [7] was 1000 nM. The “stoichiometry N” value in series [8] came to 2.
